Test results reported in the FLAb antibody collection (doi:10.7554/elife.23156).

B1: scFv; the commonest letter at each place (parent)
chain 1: EVKLDETGGGLVQPGRPMKLSCVASGFTFSDYWMNWVRQSPEKGLEWVAQIRNKPYNYETYYSDSVKGRFTISRDDSKSSVYLQMNNLRVEDMGIYYCTGSYYGMDYWGQGTSVTVS
chain 2: DVVMTQTPLSLPVSLGDQASISCRSSQSLVHSNGNTYLRWYLQKPGQSPKVLIYKVSNRFSGVPDRFSGSGSGTDFTLKISRVEAEDLGVYFCSQSTHVPWTFGGGTKLEIK

Experiments:
fluorescein = variants of: B1; assay: Kd (Tite-Seq); conditions: with fluorescein; format: scFv 4-4-20, heavy + light
[1] = variants of: B1; assay: yeast surface expression (ratio to wild type); higher = more expressed; conditions: format: scFv 4-4-20, heavy + light

Kd (fluorescein) [µM] | Variant | yeast surface expression [1]
≥ 10 | chain 1 G100S G104W | 0.425
0.876 | chain 1 G100V Y103F | 0.679
0.0335 | chain 1 G100S Y102K | 0.868
0.0233 | chain 1 G100S Y102T | 0.74
≥ 10 | chain 1 G100S Y102C | 0.675
≥ 10 | chain 1 G100S M105Q D106N | 0.522
≥ 10 | chain 1 G104A D106Q Y107E | 0.519
≥ 10 | chain 1 G104D M105L | 1.07
≥ 10 | chain 1 G104D M105W | 0.703
≥ 10 | chain 1 G100T Y102N | 0.932
≥ 10 | chain 1 G100T Y103E | 1.28
≥ 10 | chain 1 G104A D106K | 0.362
≥ 10 | chain 1 G104A D106Q | 0.575
≥ 10 | chain 1 G104A D106T | 0.78
≥ 10 | chain 1 G100T G104V D106E | 0.398
0.0038 | chain 1 G100S | 0.938
≥ 10 | chain 1 G100W | 0.491
≥ 10 | chain 1 G100Y | 0.606
0.921 | chain 1 G100T | 0.994
≥ 10 | chain 1 G100V | 0.97
≥ 10 | chain 1 G104D G109L | 0.236
≥ 10 | chain 1 G104D G109V | 0.266
≥ 10 | chain 1 G100Y G109W | 0.26
≥ 10 | chain 1 G100Y G109P | 0.22

Kd (fluorescein) [µM] | Variant | yeast surface expression [1]
≥ 10 | chain 1 G100Y G109L | 0.306
≥ 10 | chain 1 G100S M105I | 0.943
5.37 | chain 1 G100S M105W | 0.758
0.311 | chain 1 G100S M105R | 0.929
≥ 10 | chain 1 G100W Y103S | 0.463
≥ 10 | chain 1 G100S D106C | 1.03
0.0534 | chain 1 G100S D106E | 1.15
≥ 10 | chain 1 G104A | 0.693
≥ 10 | chain 1 G104D | 0.918
≥ 10 | chain 1 G104C | 0.578
≥ 10 | chain 1 G104D W108Q | 0.249
≥ 10 | chain 1 G104D W108T | 0.417
≥ 10 | chain 1 G100W G104I | 0.359
≥ 10 | chain 1 G100T Y102H D106M | 1.02
≥ 10 | chain 1 G104C Y107F | 0.291
≥ 10 | chain 1 G104C Y107V | 0.461
≥ 10 | chain 1 G100Y W108L | 0.393
≥ 10 | chain 1 G100Y D106I | 0.398
≥ 10 | chain 1 G100Y D106S | 0.505
≥ 10 | chain 1 G100R Y107N G109K | 0.235
≥ 10 | chain 1 G100W S101E | 0.429
≥ 10 | chain 1 G100W S101L | 0.293
≥ 10 | chain 1 G100W S101P | 0.197
≥ 10 | chain 1 G100T S101D | 0.83

Kd (fluorescein) [µM] | Variant | yeast surface expression [1]
≥ 10 | chain 1 G100W Y107D G109L | 0.227
≥ 10 | chain 1 G100R Y107P W108D | 0.43
≥ 10 | chain 1 G100Y M105R | 0.513
≥ 10 | chain 1 G100Y M105S | 0.377
≥ 10 | chain 1 G100T S101N G104K | 0.565
≥ 10 | chain 1 G100V Y107N G109P | 0.341
≥ 10 | chain 1 G100V M105S | 0.855
≥ 10 | chain 1 G100S Y103L W108N | 0.26
0.00606 | chain 1 G100W Y102S | 0.723
≥ 10 | chain 1 G104D Y107F | 0.945
≥ 10 | chain 1 G104D Y107D | 0.716
≥ 10 | chain 1 G100V G104A | 0.747
≥ 10 | chain 1 G100V G104D | 0.777
≥ 10 | chain 1 G100V G104F | 0.472
≥ 10 | chain 1 G100W S101P D106M | 0.186
≥ 10 | chain 1 G100R Y103V W108N | 0.274
≥ 10 | chain 1 G100W D106S W108L | 0.243
0.0245 | chain 1 G100S Y103H | 1.01
≥ 10 | chain 1 G100S Y103P | 0.689
≥ 10 | chain 1 G100V G109L | 0.256
≥ 10 | chain 1 G100V G109Y | 0.271
0.000846 | chain 1 G100V W108V | 0.892
≥ 10 | chain 1 G100V W108N | 0.468
5.96 | chain 1 G100V W108C | 0.628

Kd (fluorescein) [µM] | Variant | yeast surface expression [1]
≥ 10 | chain 1 G100S S101D | 0.892
≥ 10 | chain 1 G100Y Y103C | 0.567
≥ 10 | chain 1 G100W S101D G109V | 0.286
≥ 10 | chain 1 G100W Y107Q | 0.323
≥ 10 | chain 1 G100W Y107R | 0.229
≥ 10 | chain 1 G100W G109S | 0.43
≥ 10 | chain 1 G100T D106V | 0.468
≥ 10 | chain 1 G100T D106A | 0.704
≥ 10 | chain 1 G104C M105P | 0.256
≥ 10 | chain 1 G104C M105I | 0.349
≥ 10 | chain 1 G104A M105E | 0.648
≥ 10 | chain 1 G104A M105T | 0.685
≥ 10 | chain 1 G104A M105P | 0.375
≥ 10 | chain 1 G100S Y107A | 0.942
≥ 10 | chain 1 G100S Y107D | 0.543
≥ 10 | chain 1 G100Y Y107W | 0.468
≥ 10 | chain 1 G100Y Y107Q | 0.595
≥ 10 | chain 1 G100Y Y107T | 0.388
≥ 10 | chain 1 G100Y Y107K | 0.555
≥ 10 | chain 1 G100R Y103I | 0.418
≥ 10 | chain 1 G100W D106F | 0.18
≥ 10 | chain 1 G100W D106C | 0.437
≥ 10 | chain 1 G100T G109K | 0.433
≥ 10 | chain 1 G100T M105T | 0.909

Kd (fluorescein) [µM] | Variant | yeast surface expression [1]
≥ 10 | chain 1 G100T M105G | 0.878
≥ 10 | chain 1 G100T M105C | 0.754
≥ 10 | chain 1 G100T M105W | 0.733
≥ 10 | chain 1 G100V Y102P M105N | 0.63
≥ 10 | chain 1 G100V Y103R G104L | 0.88
≥ 10 | chain 1 G100V S101M | 0.712
≥ 10 | chain 1 G100V S101N | 0.787
≥ 10 | chain 1 G100V S101H | 0.872
≥ 10 | chain 1 G100V S101I | 0.653
≥ 10 | chain 1 G100Y S101P | 0.251
≥ 10 | chain 1 G100Y S101E | 0.708
≥ 10 | chain 1 G100Y Y102T | 0.662
0.15 | chain 1 G100W W108V | 0.251
≥ 10 | chain 1 G100W G104L W108M | 0.108
≥ 10 | chain 1 G104C Y107P W108I | 0.214
≥ 10 | chain 1 G100Y G104C | 0.183
≥ 10 | chain 1 G100W Y102N D106L | 0.286
≥ 10 | chain 1 G100V Y107H | 0.772
≥ 10 | chain 1 G100V Y107M | 0.726
≥ 10 | chain 1 G100V D106Q | 0.639
